Test results as given in US20140005119A1, “COMPOSITIONS AND METHODS FOR INHIBITING THE ACTIVITY OF P110a MUTANT PROTEINS” (Case Western Reserve University, priority 2012, published 2014).
Where no end group is shown, it is not given here.

Tests used:
[1] = biological target: T1, IRS1-p110α E545K interaction in DLD1 cells (Homo sapiens, UniProt P35568); assay: Co-IP after peptide added to culture medium of p110α E545K 3×FLAG KI DLD1 cells; format: cell-based; parameters: dose or concentration left out as unconfirmed; settings: peptide added to cell culture medium for 16 hr
T1 construct: endogenous in cells; host or cells: DLD1 p110α E545K 3×FLAG knock-in cells (rAAV gene targeting of the endogenous allele)
T1 sequence (P35568 1-1242): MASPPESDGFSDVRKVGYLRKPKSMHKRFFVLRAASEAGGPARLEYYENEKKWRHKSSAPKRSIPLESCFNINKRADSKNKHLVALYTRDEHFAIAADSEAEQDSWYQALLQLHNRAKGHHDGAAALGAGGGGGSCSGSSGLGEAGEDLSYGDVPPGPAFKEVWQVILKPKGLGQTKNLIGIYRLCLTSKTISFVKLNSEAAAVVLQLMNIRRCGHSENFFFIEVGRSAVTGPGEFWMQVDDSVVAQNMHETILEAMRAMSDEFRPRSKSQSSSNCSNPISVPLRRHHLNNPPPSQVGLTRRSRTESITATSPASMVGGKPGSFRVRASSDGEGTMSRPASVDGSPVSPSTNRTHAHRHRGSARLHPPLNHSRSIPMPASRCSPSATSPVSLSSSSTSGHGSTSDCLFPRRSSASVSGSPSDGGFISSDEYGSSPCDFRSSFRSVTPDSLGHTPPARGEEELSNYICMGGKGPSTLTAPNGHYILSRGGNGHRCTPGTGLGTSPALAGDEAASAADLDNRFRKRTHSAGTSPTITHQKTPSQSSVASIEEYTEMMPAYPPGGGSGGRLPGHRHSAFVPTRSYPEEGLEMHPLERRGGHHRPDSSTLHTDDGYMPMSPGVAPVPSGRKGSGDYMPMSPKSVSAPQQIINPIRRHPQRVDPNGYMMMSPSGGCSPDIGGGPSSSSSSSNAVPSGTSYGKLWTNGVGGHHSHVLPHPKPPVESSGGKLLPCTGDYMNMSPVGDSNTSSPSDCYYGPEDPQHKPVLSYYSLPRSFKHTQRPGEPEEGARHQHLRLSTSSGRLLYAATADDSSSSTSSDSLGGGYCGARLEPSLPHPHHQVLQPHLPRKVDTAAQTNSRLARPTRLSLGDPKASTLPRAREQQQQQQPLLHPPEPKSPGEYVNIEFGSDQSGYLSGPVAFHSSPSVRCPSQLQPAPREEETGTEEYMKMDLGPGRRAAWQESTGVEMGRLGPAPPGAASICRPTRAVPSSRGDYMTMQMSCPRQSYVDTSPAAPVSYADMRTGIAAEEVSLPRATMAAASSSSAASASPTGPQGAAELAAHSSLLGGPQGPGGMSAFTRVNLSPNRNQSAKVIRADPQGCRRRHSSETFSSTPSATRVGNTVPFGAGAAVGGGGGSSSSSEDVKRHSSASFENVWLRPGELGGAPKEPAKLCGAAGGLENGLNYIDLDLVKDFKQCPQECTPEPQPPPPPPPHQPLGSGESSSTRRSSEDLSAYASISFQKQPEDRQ
Method: FIG. 4(A-F) illustrate: (A) Schematic diagram of linear and stapled WT and mutant peptides derived from p110α (SEQ ID NOs: 5, 6, 7 and 8). (B) Immunoblots of cell lysates immunoprecipitated with beads conjugated with anti-FLAG antibodies and then blotted with the indicated antibodies. Linear or stapled WT and mutant peptide were added into culture medium of the p110α E545K 3×FLAG KI cells for 16 hr. (C) Immunoblots of cell lysates immunoprecipitated with anti-p110α antibodies and then blotted with the indicated antibodies. Vaco481 CRC cells were treated with the stapled mutant peptides at the indicated concentration. (D) Immunoblots of cell lysates blotted with the indicated antibodies. The indicated cell lines were treated with the stapled mutant peptide. (E) Immunoblots of cell lysates blotted with the indicated antibodies. The indicated cancer cell lines were treated or untreated with stapled WT or mutant peptide at […] for 2 hr. (F) Immunoblots of cell lysates were blotted with the indicated antibodies. The indicated cancer cell lines were treated with or without […] of stapled mutant peptide for 2 hr.
(§1) For Co-immunoprecipitation (Co-IP), cells were harvested, washed with PBS, and then lysed in IP buffer (50 mMTris [pH 7.4], 150 mMNaCl, 5 mMEDTA [pH 8.0], 0.5% NP40, 1 mM PMSF, complete Protease Inhibitor Cocktail tablet [Roche]; supplemented with phosphatase inhibitors [1 mM Na3VO4, 20 mM NaF, 0.1 mM b-glycerophosphate, 20 mM sodium pyrophosphate] when necessary). For immunoblotting (IB) of phospho-specific proteins, unless stated otherwise, cells were lysed in urea buffer (100 mM NaH2PO4, 10 mM Tris-HCl, 8 M Urea, 1 mM Na3VO4, 20 mM NaF, 0.1 mM β-glycerophosphate, 20 mM sodium pyrophosphate, supplemented with complete Protease Inhibitor Cocktail tablet [Roche], pH 8.0). Lysates were then cleared by centrifugation (14,000 rpm, 10 min) and protein concentration in supernatants was determined with a BCA protein assay kit (Pierce, Rockford, Ill.). Equal amounts of total protein were used for IP or IB.

[2] = biological target: T2, interaction between p110α E545K and IRS1 (Homo sapiens, UniProt P35568); assay: Peptide competition assay in cell lysates (anti-FLAG immunoprecipitation, anti-IRS1 blot); format: binding; settings: peptide added into cell lysates of p110α E545K 3×FLAG KI cells
T2 construct: In KI DLD1 cells, IRS1 was co-immunoprecipitated with p110α E545K but not the WT p110α; endogenous in cells; host or cells: DLD1 p110α E545K 3×FLAG knock-in cells (rAAV gene targeting of the endogenous allele)
T2 sequence (P35568 1-1242): T1 sequence (P35568 1-1242)
Method: FIGS. 3(A-M) illustrate: (A, B) Mapping peptides (P3, SEQ ID NO: 1; P4 SEQ ID NO: 2; P5, SEQ ID NO: 3; P6, SEQ ID NO: 4) derived from mutant p110α that inhibit interaction between IRS1 and p110α E545K. The indicated peptides were added into cell lysates made from the p110α E545K 3×FLAG KI cells. Cell lysates were immunoprecipitated with beads conjugated with anti-FLAG antibodies and then blotted with anti-IRS1 antibodies. (C) Immunoblots of cell lysates made from the p110α E545K 3×FLAG KI cells. Cell lysates were immunoprecipitated with beads conjugated with anti-FLAG antibodies and then blotted with the indicated antibodies. (D) Immunoblots of cell lysate of Myc-tagged IRS1 plasmid, which co-transfected an ABD domain deletion construct of the FLAG-tagged p110α E545K mutant (ΔABD), incubated with the indicated amount of stapled p110α mutant peptides, and then immunoprecipitated with anti-FLAG antibodies and blotted with the indicated antibodies. (J, K) Immunoblot and graph of purified recombinant p110α E545K mutant proteins mixed with the indicated components and quantified using an in vitro lipid kinase assay. (L, M) Immunoblots of the indicated cell lines serum-starved, stimulated with 1 μg/ml insulin for 30 min, and then treated with or without the indicated peptides. Cell lysates were blotted with the indicated antibodies. All error bars show mean±SEM. *p<0.05, **p<0.001, t test.
as §1
For in vitro peptide competition assay, the p110α mutant-FLAG-tagged cells were grown to 90% confluency, serum-starved overnight, and lysed as described previously. Peptides were then added to the cell lysates, incubated for 30 min at 4° C. and followed by immunoprecipitation assay.

[3] = biological target: insulin receptor substrate 1 (IRS1) (UniProt P35568)
[4] = biological target: T3, wild-type p110α (endogenous, untagged) (UniProt P42336 1-1068); assay: pull-down with His-tagged IRS1 fragment from WT-only DLD1 lysates (FIG. 1B)
T3 construct: also called WT p110α
T3 sequence (P42336 whole entry, the tested form may be a part): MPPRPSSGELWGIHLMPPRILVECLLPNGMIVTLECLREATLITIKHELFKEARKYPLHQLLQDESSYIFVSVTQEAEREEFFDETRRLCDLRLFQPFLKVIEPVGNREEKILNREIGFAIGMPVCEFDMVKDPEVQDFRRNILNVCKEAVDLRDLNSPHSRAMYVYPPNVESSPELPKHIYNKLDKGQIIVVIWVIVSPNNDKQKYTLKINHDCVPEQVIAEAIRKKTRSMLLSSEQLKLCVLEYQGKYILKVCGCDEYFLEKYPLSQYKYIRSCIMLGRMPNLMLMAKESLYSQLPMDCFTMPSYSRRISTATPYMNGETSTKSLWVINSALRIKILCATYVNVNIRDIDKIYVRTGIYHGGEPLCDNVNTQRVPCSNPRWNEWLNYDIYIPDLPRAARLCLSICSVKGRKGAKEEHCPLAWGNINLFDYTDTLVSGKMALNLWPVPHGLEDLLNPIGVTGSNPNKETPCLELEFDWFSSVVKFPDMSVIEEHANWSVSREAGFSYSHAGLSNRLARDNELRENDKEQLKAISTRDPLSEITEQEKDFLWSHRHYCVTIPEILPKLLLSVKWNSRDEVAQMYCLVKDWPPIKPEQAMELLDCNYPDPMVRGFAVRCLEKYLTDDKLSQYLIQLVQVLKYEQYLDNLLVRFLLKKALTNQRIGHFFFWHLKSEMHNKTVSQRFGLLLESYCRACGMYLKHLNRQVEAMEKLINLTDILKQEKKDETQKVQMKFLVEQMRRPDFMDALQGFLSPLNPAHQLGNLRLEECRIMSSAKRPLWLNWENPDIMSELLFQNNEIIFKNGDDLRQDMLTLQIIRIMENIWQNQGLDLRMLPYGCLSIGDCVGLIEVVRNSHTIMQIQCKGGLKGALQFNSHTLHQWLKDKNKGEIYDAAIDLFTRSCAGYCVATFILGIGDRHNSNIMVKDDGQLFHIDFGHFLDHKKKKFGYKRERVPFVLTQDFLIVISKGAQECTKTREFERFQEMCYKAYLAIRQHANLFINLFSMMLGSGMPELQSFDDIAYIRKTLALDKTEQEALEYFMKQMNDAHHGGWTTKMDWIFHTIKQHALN
Description: The altered interaction properties of the mutant forms of p110α prompted us to map the minimal essential regions of IRS1 required for its interaction with p110α E545K mutant protein. For this study, we made a series of 6×His-tagged IRS1 truncation constructs (FIGS. 1A and 1C). The His-tagged IRS1 proteins were first expressed in Eschericia coli and purified with Ni-NTA beads. Then the purified proteins were used to pull down p110α from DLD1 cells expressing either the WT p110α only or the p110α E545K mutant only. With these proteins, we first mapped the mutant p110α interaction domain to the middle part of IRS1 (amino acid [AA] 585-962) (FIG. 1B). This fragment contains three YxxM motifs that mediate the pY dependent IRS1-p85 protein interaction. We thus constructed an unphosphorylatable IRS1Y3F mutant fragment (FIG. 1A). […] In contrast, neither of the single region deletions could interrupt the IRS1 mutant p110α interaction. […] Finally, similar results were also observed when the IRS1D was expressed in p110α E545K 3×FLAG KI DLD1 cells.

18-AA mutant peptide: linear 18-AA E545K mutant peptide corresponding to the C-terminal α-helical motif of p110α helical domain (SEITKQEKDFLWSHRHYC-OH; listed as Homo sapiens)
disruption of IRS1-p110α E545K interaction in DLD1 cells [1]: neither the linear mutant peptide nor the stapled WT peptide affected the interaction
inhibition of the interaction between p110α E545K and IRS1 [2]: moderate inhibition
inhibition of the interaction between p110α E545K and IRS1 ([2]; listed as peptide corresponding to the C-terminal α-helical motif): inhibited

N-terminal 21-AA mutant peptide: linear N-terminal 21-AA mutant peptide corresponding to the N-terminal α-helical motif (EQLKAISTRDPLSEITKQEKD-OH; listed as Homo sapiens)
inhibition of the interaction between p110α E545K and IRS1 [2]: no effect

WT peptide: linear 30-AA wild-type p110α counterpart of the 30-AA E545K mutant peptide (EQLKAISTRDPLSEITEQEKDFLWSHRHYC-OH; listed as Homo sapiens) [reference compound]
inhibition of the interaction between p110α E545K and IRS1 [2]: failed to cause any inhibition

p110α E545K mutant (endogenous, untagged)
AKT phosphorylation [3]: the stapled mutant peptide, but not the WT counterpart, reduced AKT phosphorylation in mutant-only DLD1 cells
AKT phosphorylation at both T308 and S473 residues [3]: treatment of cancer cell lines (DLD1, H460, and MDA-MB361) harboring p110α E545K ... with the stapled mutant peptide resulted in reduced AKT phosphorylation

30-AA mutant peptide: linear 30-AA p110α E545K mutant peptide forming two α-helix domains flanking the mutation site (EQLKAISTRDPLSEITKQEKDFLWSHRHYC-OH; listed as Homo sapiens)
inhibition of the interaction between p110α E545K and IRS1 [2]: inhibited

B1: 6×His-tagged IRS1 middle fragment (AA 585-962) (other, UniProt P35568 585-962, looked up)
chain: EGLEMHPLERRGGHHRPDSSTLHTDDGYMPMSPGVAPVPSGRKGSGDYMPMSPKSVSAPQQIINPIRRHPQRVDPNGYMMMSPSGGCSPDIGGGPSSSSSSSNAVPSGTSYGKLWTNGVGGHHSHVLPHPKPPVESSGGKLLPCTGDYMNMSPVGDSNTSSPSDCYYGPEDPQHKPVLSYYSLPRSFKHTQRPGEPEEGARHQHLRLSTSSGRLLYAATADDSSSSTSSDSLGGGYCGARLEPSLPHPHHQVLQPHLPRKVDTAAQTNSRLARPTRLSLGDPKASTLPRAREQQQQQQPLLHPPEPKSPGEYVNIEFGSDQSGYLSGPVAFHSSPSVRCPSQLQPAPREEETGTEEYMKMDLGPGRRAAWQESTGVEM
notes: range 585-962; Expressed in E. coli BL21, purified on Ni-NTA beads; also called middle part of IRS1; middle fragment of IRS1; not shown: 6×His tag
binding result [4]: no binding
